Target: mEPCR on mouse brain microvascular endothelial cells (bEND3) (mouse (endogenous in bEND3)) (UniProt Q64695)
Assay: radioligand binding

Chain of mEPCR on mouse brain microvascular endothelial cells (bEND3) (mouse (endogenous in bEND3)) (Q64695 18-242): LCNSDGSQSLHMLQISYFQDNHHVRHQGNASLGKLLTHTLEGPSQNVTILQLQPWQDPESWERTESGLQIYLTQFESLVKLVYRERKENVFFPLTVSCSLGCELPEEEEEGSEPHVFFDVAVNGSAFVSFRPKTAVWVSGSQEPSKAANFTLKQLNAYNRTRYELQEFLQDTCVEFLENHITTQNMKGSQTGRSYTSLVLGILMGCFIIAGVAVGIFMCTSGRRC

## Mouse APC (enzyme)
  amount bound as percent of human APC at 50 nM: 30%
  fold increase of binding with 1 mM Mg2+ over Ca2+ alone: 3 fold

## Recombinant activated human protein C (Xigris) (enzyme)
  Kd: 23 nM
  fold increase of binding with 1 mM Mg2+ over Ca2+ alone: 10 fold

Source: publication PMC3883592
